B1: Azoarcus group I ribozyme (parent)
chain: GUGCCUUGCGCCGGGAAACCACGCAAGGGAUGGUGUCAAAUUCGGCGAAACCUAAGCGCCCGCCCGGGCGUAUGGCAACGCCGAGCCAAGCUUCGGCGCCUGCGCCGAUGAAGGUGUAGAGACUAGACGGCACCCACCUAAGGCAAACGCUAUGGUGAAGGCAUAGUCCAGGGAGUGGCGAAAGUCACACAAACCGG

Variants of: B1
Test: reverse-splicing fitness (ratio to wild type); higher = more active; in vitro selection; Mg2+ level not given
Procedure, shortened: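 An in vitro group I ribozyme library with randomized positions was T7-transcribed and gel-purified. In triplicate, 10 pmol RNA in EPPS pH 7.5 was reacted with 50 pmoles of a 30-nt RNA substrate for 1 h at 37 °C across several added MgCl2 levels (1–48 mM), then stopped with EDTA. Products were reverse transcribed from a substrate-complementary primer, PCR-amplified and sequenced (HiSeq 4000). Fitness is a variant's read proportion after selection over that before, normalised to wild type.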

Compared with GUGCCUUGCGCCGGGAAACCACGCAAGGGAUGGUGUCAAAUUCGGCGAAACCUAAGCGCCCGCCCGGGCGUAUGGCAACGCUGAGCCAAGCUUCGGCGCCUGCGCCGAUGGAGGUGUAGUGACUAGACGGCACCCACCUAAGGCGAACGGUAUGGUGAAGGCAUAGUCGAGGGAGAGGCGAAAGUCACACAAACCGG [C82U A111G A120U A145G C150G C169G U176A], GUGCCUUGCGCCGGGAAACCACGCAAGGGAUGGUGUCAAAUUCGGCGAAACCUAAGCGCCCGCCCGGGCGUAUGGCAACGCUGAGCCAAGCUUCGGCGCCUGCGCCGAUGGAGGUGUAGUGACUAGACGGCACCCACCUAAGGCGAACGGUAUGGUGAAGGCAUAGUCGAGGGAGGGGCGAAAGUCACACAAACCGG [C82U A111G A120U A145G C150G C169G U176G] is lower in reverse-splicing fitness: 0.0073 for the first, 0.00255 for the second.

Going from GUGCCUUGCGCCGGGAAACCACGCAAGGGAUGGUGUCAAAUUCGGCGAAACCUAAGCGCCCGCCCGGGCGUAUGGCAACGCUGAGCCAAGCUUCGGCGCCUGCGCCGAUGGAGGUGUAGUGACUAGACGGCACCCACCUAAGGCGAACGAUAUGGUGAAGGCAUAGUCAAGGGAGAGGCGAAAGUCACACAAACCGG [C82U A111G A120U A145G C150A C169A U176A] to GUGCCUUGCGCCGGGAAACCACGCAAGGGAUGGUGUCAAAUUCGGCGAAACCUAAGCGCCCGCCCGGGCGUAUGGCAACGCUGAGCCAAGCUUCGGCGCCUGCGCCGAUGGAGGUGUAGUGACUAGACGGCACCCACCUAAGGCGAACGAUAUGGUGAAGGCAUAGUCAAGGGAGCGGCGAAAGUCACACAAACCGG [C82U A111G A120U A145G C150A C169A U176C], the reverse-splicing fitness falls from 0.00624 to 0.00365.

Going from GUGCCUUGCGCCGGGAAACCACGCAAGGGAUGGUGUCAAAUUCGGCGAAACCUAAGCGCCCGCCCGGGCGUAUGGCAACGCUGAGCCAAGCUUCGGCGCCUGCGCCGAUGGAGGUGUAGUGACUAGACGGCACCCACCUAAGGCGAACGAUAUGGUGAAGGCAUAGUCAAGGGAGGGGCGAAAGUCACACAAACCGG [C82U A111G A120U A145G C150A C169A U176G] to GUGCCUUGCGCCGGGAAACCACGCAAGGGAUGGUGUCAAAUUCGGCGAAACCUAAGCGCCCGCCCGGGCGUAUGGCAACGCUGAGCCAAGCUUCGGCGCCUGCGCCGAUGGAGGUGUAGUGACUAGACGGCACCCACCUAAGGCGAACGAUAUGGUGAAGGCAUAGUCGAGGGAGAGGCGAAAGUCACACAAACCGG [C82U A111G A120U A145G C150A C169G U176A], the reverse-splicing fitness rises from 0.00258 to 0.0124.

Compared with GUGCCUUGCGCCGGGAAACCACGCAAGGGAUGGUGUCAAAUUCGGCGAAACCUAAGCGCCCGCCCGGGCGUAUGGCAACGCUGAGCCAAGCUUCGGCGCCUGCGCCGAUGGAGGUGUAGUGACUAGACGGCACCCACCUAAGGCGAACGAUAUGGUGAAGGCAUAGUCGAGGGAGGGGCGAAAGUCACACAAACCGG [C82U A111G A120U A145G C150A C169G U176G], GUGCCUUGCGCCGGGAAACCACGCAAGGGAUGGUGUCAAAUUCGGCGAAACCUAAGCGCCCGCCCGGGCGUAUGGCAACGCUGAGCCAAGCUUCGGCGCCUGCGCCGAUGGAGGUGUAGUGACUAGACGGCACCCACCUAAGGCGAACGAUAUGGUGAAGGCAUAGUCGAGGGAGCGGCGAAAGUCACACAAACCGG [C82U A111G A120U A145G C150A C169G U176C] is higher in reverse-splicing fitness: 0.00221 for the first, 0.00574 for the second.

Compared with GUGCCUUGCGCCGGGAAACCACGCAAGGGAUGGUGUCAAAUUCGGCGAAACCUAAGCGCCCGCCCGGGCGUAUGGCAACGCUGAGCCAAGCUUCGGCGCCUGCGCCGAUGGAGGUGUAGUGACUAGACGGCACCCACCUAAGGCGAACGGUAUGGUGAAGGCAUAGUCCAGGGAGAGGCGAAAGUCACACAAACCGG [C82U A111G A120U A145G C150G U176A], GUGCCUUGCGCCGGGAAACCACGCAAGGGAUGGUGUCAAAUUCGGCGAAACCUAAGCGCCCGCCCGGGCGUAUGGCAACGCUGAGCCAAGCUUCGGCGCCUGCGCCGAUGGAGGUGUAGUGACUAGACGGCACCCACCUAAGGCGAACGGUAUGGUGAAGGCAUAGUCUAGGGAGAGGCGAAAGUCACACAAACCGG [C82U A111G A120U A145G C150G C169U U176A] is lower in reverse-splicing fitness: 0.00494 for the first, 0.00458 for the second.

First: GUGCCUUGCGCCGGGAAACCACGCAAGGGAUGGUGUCAAAUUCGGCGAAACCUAAGCGCCCGCCCGGGCGUAUGGCAACGCUGAGCCAAGCUUCGGCGCCUGCGCCGAUGGAGGUGUAGUGACUAGACGGCACCCACCUAAGGCGAACGGUAUGGUGAAGGCAUAGUCUAGGGAGGGGCGAAAGUCACACAAACCGG [C82U A111G A120U A145G C150G C169U U176G]
Second: GUGCCUUGCGCCGGGAAACCACGCAAGGGAUGGUGUCAAAUUCGGCGAAACCUAAGCGCCCGCCCGGGCGUAUGGCAACGCUGAGCCAAGCUUCGGCGCCUGCGCCGAUGGAGGUGUAGUGACUAGACGGCACCCACCUAAGGCGAACGGUAUGGUGAAGGCAUAGUCUAGGGAGCGGCGAAAGUCACACAAACCGG [C82U A111G A120U A145G C150G C169U U176C]
The reverse-splicing fitness of the first is lower: 0.00292 for the first, 0.00581 for the second.

First: GUGCCUUGCGCCGGGAAACCACGCAAGGGAUGGUGUCAAAUUCGGCGAAACCUAAGCGCCCGCCCGGGCGUAUGGCAACGCUGAGCCAAGCUUCGGCGCCUGCGCCGAUGGAGGUGUAGUGACUAGACGGCACCCACCUAAGGCGAACGGUAUGGUGAAGGCAUAGUCAAGGGAGUGGCGAAAGUCACACAAACCGG [C82U A111G A120U A145G C150G C169A]
Second: GUGCCUUGCGCCGGGAAACCACGCAAGGGAUGGUGUCAAAUUCGGCGAAACCUAAGCGCCCGCCCGGGCGUAUGGCAACGCUGAGCCAAGCUUCGGCGCCUGCGCCGAUGGAGGUGUAGUGACUAGACGGCACCCACCUAAGGCGAACGGUAUGGUGAAGGCAUAGUCGAGGGAGUGGCGAAAGUCACACAAACCGG [C82U A111G A120U A145G C150G C169G]
The reverse-splicing fitness of the first is higher: 0.00768 for the first, 0.00671 for the second.

In the case of GUGCCUUGCGCCGGGAAACCACGCAAGGGAUGGUGUCAAAUUCGGCGAAACCUAAGCGCCCGCCCGGGCGUAUGGCAACGCUGAGCCAAGCUUCGGCGCCUGCGCCGAUGGAGGUGUAGUGACUAGACGGCACCCACCUAAGGCGAACGGUAUGGUGAAGGCAUAGUCUAGGGAGUGGCGAAAGUCACACAAACCGG [C82U A111G A120U A145G C150G C169U], the reverse-splicing fitness is reported as 0.00654.
